Reference: patent publication US20250051404A1

Columns and labels:
[1] = target: integrin αvβ3 expressed on CHO cells (CHO-αvβ3); test: cell-based or functional assay
human VEGF165 (human) = human VEGF165 (human) (UniProt P15692); test: direct binding ELISA, VEGF165 coated, anti-human IgG Fc-HRP detection

soluble integrin αvβ3, sequence (P06756 31-992, chain 1 of 2): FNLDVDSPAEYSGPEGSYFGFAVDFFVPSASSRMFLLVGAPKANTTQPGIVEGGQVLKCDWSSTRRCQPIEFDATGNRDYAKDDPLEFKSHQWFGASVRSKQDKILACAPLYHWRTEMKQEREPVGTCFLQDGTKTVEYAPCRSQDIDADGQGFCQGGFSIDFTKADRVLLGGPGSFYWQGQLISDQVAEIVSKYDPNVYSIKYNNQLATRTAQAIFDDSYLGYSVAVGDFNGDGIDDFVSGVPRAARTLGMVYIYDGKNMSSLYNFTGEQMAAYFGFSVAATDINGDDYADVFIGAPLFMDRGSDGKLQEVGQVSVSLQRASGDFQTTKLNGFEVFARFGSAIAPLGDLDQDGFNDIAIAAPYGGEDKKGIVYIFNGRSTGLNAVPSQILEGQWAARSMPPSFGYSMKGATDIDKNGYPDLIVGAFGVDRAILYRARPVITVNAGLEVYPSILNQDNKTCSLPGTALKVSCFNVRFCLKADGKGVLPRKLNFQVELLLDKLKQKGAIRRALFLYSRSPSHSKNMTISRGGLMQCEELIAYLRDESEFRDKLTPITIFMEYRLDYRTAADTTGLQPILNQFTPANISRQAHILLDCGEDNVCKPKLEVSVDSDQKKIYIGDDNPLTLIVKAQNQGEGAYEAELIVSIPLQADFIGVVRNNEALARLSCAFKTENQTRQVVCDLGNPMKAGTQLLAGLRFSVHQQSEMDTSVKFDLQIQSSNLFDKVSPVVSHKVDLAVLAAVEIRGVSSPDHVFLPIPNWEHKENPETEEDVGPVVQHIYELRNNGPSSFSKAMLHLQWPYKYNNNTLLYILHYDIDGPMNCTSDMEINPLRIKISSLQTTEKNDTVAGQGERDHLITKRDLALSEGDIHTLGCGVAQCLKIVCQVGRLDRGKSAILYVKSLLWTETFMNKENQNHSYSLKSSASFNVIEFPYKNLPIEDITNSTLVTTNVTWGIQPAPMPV
soluble integrin αvβ3, sequence (P05106 27-718, chain 2 of 2, further chain): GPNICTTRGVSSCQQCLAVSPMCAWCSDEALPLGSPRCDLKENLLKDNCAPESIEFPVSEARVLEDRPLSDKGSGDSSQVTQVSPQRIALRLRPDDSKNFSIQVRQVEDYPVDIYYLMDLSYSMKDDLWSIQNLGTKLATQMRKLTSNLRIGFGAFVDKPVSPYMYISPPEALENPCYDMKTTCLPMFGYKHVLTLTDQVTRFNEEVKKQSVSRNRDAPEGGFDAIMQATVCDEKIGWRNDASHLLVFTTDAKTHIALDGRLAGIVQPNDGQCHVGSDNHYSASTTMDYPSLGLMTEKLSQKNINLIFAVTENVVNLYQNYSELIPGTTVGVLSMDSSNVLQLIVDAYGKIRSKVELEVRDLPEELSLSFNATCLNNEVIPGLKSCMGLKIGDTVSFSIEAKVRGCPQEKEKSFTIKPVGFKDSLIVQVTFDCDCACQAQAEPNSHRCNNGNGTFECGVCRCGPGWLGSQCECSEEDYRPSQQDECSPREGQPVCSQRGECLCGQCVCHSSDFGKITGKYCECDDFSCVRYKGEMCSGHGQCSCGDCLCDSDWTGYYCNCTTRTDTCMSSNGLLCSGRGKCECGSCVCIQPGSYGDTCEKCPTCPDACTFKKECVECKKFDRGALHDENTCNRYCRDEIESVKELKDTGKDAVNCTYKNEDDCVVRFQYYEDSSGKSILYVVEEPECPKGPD

Positive Control 3 (wild type Rho, SEQ ID NO: 1) (from UniProt P30403 408-475) (ligand)
αvβ3, IC50 (nM), inhibition of CHO-αvβ3 cell adhesion to fibrinogen [1]: 24.7 nM
IC50 (soluble integrin αvβ3): 2.6 to 3.2 nM

Positive Control 2 (aflibercept) (Fc fusion)
EC50 (human VEGF165 (human)): 0.088 to 0.195 nM
